# US20090149339A1 (published 2009)
# Ends that are not written are not given here. * marks the point of attachment. Biotin = O=C1N[C@H]2[C@H](CS[C@H]2CCCCC(=O)*)N1
# B1: CC CKR-4 C-terminal PL peptide AA44L, biotinylated (peptide)
# peptide: Biotin-DTPSSSYTQSTMDHDLHDAL
# B2: CD62E C-terminal PL peptide AA48L, biotinylated (peptide)
# peptide: Biotin-SSSQSLESDGSYQKPSYIL
# B3: FceRIb C-terminal PL peptide AA25L, biotinylated (peptide)
# peptide: Biotin-YSATYSELEDPGEMSPPIDL
# notes: also called Fc epsilon receptor beta I chain
# B4: FasLigand C-terminal PL peptide AA23L-M, biotinylated (peptide)
# peptide: Biotin-SSKSKSSEESQTFFGLYKL
# B5: CC CKR-1R C-terminal PL peptide AA41L, biotinylated (peptide)
# peptide: Biotin-LERVSSTSPSTGEHELSAGF
# Target: GST-PSD95 PDZ domain fusion protein (human post-synaptic density protein 95 AA387-724; PDZ domains 1-3 of 3) (human, UniProt P08515 1-218 = GST)
# Experiment: A/G assays
# Chain of GST-PSD95 PDZ domain fusion protein (human post-synaptic density protein 95 AA387-724; PDZ domains 1-3 of 3) (P08515 1-218, tags or fused parts left off): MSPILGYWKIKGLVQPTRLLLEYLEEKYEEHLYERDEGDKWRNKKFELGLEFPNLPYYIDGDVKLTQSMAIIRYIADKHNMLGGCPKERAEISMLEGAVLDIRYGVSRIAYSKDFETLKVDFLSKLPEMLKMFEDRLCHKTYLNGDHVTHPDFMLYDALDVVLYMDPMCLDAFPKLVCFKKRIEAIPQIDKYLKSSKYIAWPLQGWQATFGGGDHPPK
row,Binder,binding result
1,B1,no binding
2,B2,no binding
3,B3,no binding
4,B4,no binding
5,B5,no binding

# Target: T1, GST-TAX43 PDZ domain fusion protein (human tax interaction protein 43 AA15-85; PDZ domain 1 of 1) (human, UniProt P08515 1-218 = GST)
# T1 construct: also called TX 43
# Experiment: A/G assays
# T1 sequence (P08515 1-218, tags or fused parts left off): as above
row,Binder,binding result
1,B1,no binding
2,B2,no binding
3,B3,no binding
4,B4,no binding
5,B5,no binding

# Target: T2, GST-CBP PDZ domain fusion protein (Cytohesin binding protein HE AA85-175; PDZ domain 1 of 1) (UniProt P08515 1-218 = GST)
# T2 construct: also called Prot
# Experiment: A/G assays
# T2 sequence (P08515 1-218, tags or fused parts left off): as above
row,Binder,binding result
1,B1,no binding
2,B2,no binding
3,B3,no binding
4,B4,no binding
5,B5,no binding

# Target: T3, GST-NeDLG PDZ domain fusion protein (presynaptic protein sao102, neuroendocrine-dlg; PDZ domains 1-2 of 3) (UniProt P08515 1-218 = GST)
# T3 construct: also called NeDLG1
# Experiment: A/G assays
row,Binder,binding result
1,B1,no binding
2,B2,no binding
3,B3,no binding
4,B4,no binding
5,B5,no binding

# Target: GST-LIM PDZ domain fusion protein (Human LIM protein AA29-112; PDZ domain 1 of 1) (human, UniProt P08515 1-218 = GST)
# Experiment: A/G assays
# Chain of GST-LIM PDZ domain fusion protein (Human LIM protein AA29-112; PDZ domain 1 of 1) (P08515 1-218, tags or fused parts left off): as above
row,Binder,binding result
1,B1,no binding
2,B2,no binding
3,B3,no binding
4,B4,no binding
5,B5,no binding

# Target: T4, GST-MPP2 PDZ domain fusion protein (maguk p55 subfamily member 2 (DLG2) AA185-273; PDZ domain 1 of 1) (UniProt P08515 1-218 = GST)
# T4 construct: also called MMP2
# Experiment: A/G assays
row,Binder,binding result
1,B1,no binding
2,B2,no binding
3,B3,no binding
4,B4,no binding
5,B5,no binding

# Target: GST-prIL16 PDZ domain fusion protein (putative interleukin 16 precursor AA170-383; PDZ domains 1-2 of 2) (UniProt P08515 1-218 = GST)
# Experiment: A/G assays
row,Binder,binding result
1,B1,no binding
2,B2,no binding
3,B3,no binding
4,B4,no binding
5,B5,no binding

# Target: T5, GST-KIAA0303 PDZ domain fusion protein (KIAA0303 AA652-742; PDZ domain 1 of 1) (UniProt P08515 1-218 = GST)
# T5 construct: also called K303
# Experiment: A/G assays
# T5 sequence (P08515 1-218, tags or fused parts left off): as above
row,Binder,binding result
1,B1,no binding
2,B2,no binding
3,B3,no binding
4,B4,no binding
5,B5,no binding

# Target: GST-TIAM1 PDZ domain fusion protein (T-lymphoma invasion and metastasis inducing protein 1 AA1001-1088); PDZ 1 … (UniProt P08515 1-218 = GST)
# Experiment: A/G assays
# Chain of GST-TIAM1 PDZ domain fusion protein (T-lymphoma invasion and metastasis inducing protein 1 AA1001-1088); PDZ 1 … (P08515 1-218, tags or fused parts left off): as above
row,Binder,binding result
1,B1,no binding
2,B2,no binding
3,B3,no binding
4,B4,no binding
5,B5,no binding

# Target: GST-PTN-4 PDZ domain fusion protein (protein-tyrosine phosphatase meg1 AA774-862; PDZ domain 1 of 1) (UniProt P08515 1-218 = GST)
# Experiment: A/G assays
# Chain of GST-PTN-4 PDZ domain fusion protein (protein-tyrosine phosphatase meg1 AA774-862; PDZ domain 1 of 1) (P08515 1-218, tags or fused parts left off): as above
row,Binder,binding result
1,B1,no binding
2,B2,no binding
3,B3,no binding
4,B4,no binding
5,B5,no binding

# Target: T6, GST-TAX40 PDZ domain fusion protein (human tax interaction protein 40 AA35-137; PDZ domain 1 of 1) (human, UniProt P08515 1-218 = GST)
# T6 construct: also called TX 40
# Experiment: A/G assays
# T6 sequence (P08515 1-218, tags or fused parts left off): as above
row,Binder,binding result
1,B1,no binding
2,B2,no binding
3,B3,no binding
4,B4,no binding
5,B5,no binding

# Target: GST-DVL1 PDZ domain fusion protein (human dishevelled segment polarity protein homolog AA248-340); PDZ domain … (human, UniProt P08515 1-218 = GST)
# Experiment: A/G assays
# Chain of GST-DVL1 PDZ domain fusion protein (human dishevelled segment polarity protein homolog AA248-340); PDZ domain … (P08515 1-218, tags or fused parts left off): as above
row,Binder,binding result
1,B1,no binding
2,B2,no binding
3,B3,no binding
4,B4,no binding
5,B5,no binding

# Target: GST-LIMK2 PDZ domain fusion protein (human LIM domain kinase 2 AA185-275; PDZ domain 1 of 1) (human, UniProt P08515 1-218 = GST)
# Experiment: A/G assays
# Chain of GST-LIMK2 PDZ domain fusion protein (human LIM domain kinase 2 AA185-275; PDZ domain 1 of 1) (P08515 1-218, tags or fused parts left off): as above
row,Binder,binding result
1,B1,no binding
2,B2,no binding
3,B3,no binding
4,B4,no binding
5,B5,no binding

# Target: GST-MPP1 PDZ domain fusion protein (55 Kd erythrocyte membrane protein AA101-186; PDZ domain 1 of 1) (UniProt P08515 1-218 = GST)
# Experiment: A/G assays
# Chain of GST-MPP1 PDZ domain fusion protein (55 Kd erythrocyte membrane protein AA101-186; PDZ domain 1 of 1) (P08515 1-218, tags or fused parts left off): as above
row,Binder,binding result
1,B1,no binding
2,B2,no binding
3,B3,no binding
4,B4,no binding
5,B5,no binding

# Target: GST-NOS1 PDZ domain fusion protein (human neuronal nitric oxide synthase; PDZ domain 1 of 1) (human, UniProt P08515 1-218 = GST)
# Experiment: A/G assays
# Chain of GST-NOS1 PDZ domain fusion protein (human neuronal nitric oxide synthase; PDZ domain 1 of 1) (P08515 1-218, tags or fused parts left off): as above
row,Binder,binding result
1,B1,no binding
2,B2,no binding
3,B3,no binding
4,B4,no binding
5,B5,no binding

# Target: T7, GST-41.8 kD PDZ domain fusion protein (hypothetical 41.8 kD protein AA4-85; PDZ domain 1 of 1) (UniProt P08515 1-218 = GST)
# T7 construct: also called hypoth
# Experiment: A/G assays
# T7 sequence (P08515 1-218, tags or fused parts left off): as above
row,Binder,binding result
1,B1,no binding
2,B2,no binding
3,B3,no binding
4,B4,no binding
5,B5,no binding

# Target: T8, GST-TAX33 PDZ domain fusion protein (tax interaction protein 33 AA73-162; PDZ domain 1 of 1) (UniProt P08515 1-218 = GST)
# T8 construct: also called TX33
# Experiment: A/G assays
# T8 sequence (P08515 1-218, tags or fused parts left off): as above
row,Binder,binding result
1,B1,no binding
2,B2,no binding
3,B3,no binding
4,B4,no binding
5,B5,no binding

# Target: T9, GST-KIAA0559 PDZ domain fusion protein (KIAA0559 AA766-870; PDZ1 of 1) (UniProt P08515 1-218 = GST)
# T9 construct: also called K559
# Experiment: A/G assays
# T9 sequence (P08515 1-218, tags or fused parts left off): as above
row,Binder,binding result
1,B1,no binding
2,B2,no binding
3,B3,no binding
4,B4,no binding
5,B5,no binding

# Target: GST-MINT3 PDZ domain fusion protein (human MINT3 AA11-52; PDZ domain 1 of 1) (human, UniProt P08515 1-218 = GST)
# Experiment: A/G assays
# Chain of GST-MINT3 PDZ domain fusion protein (human MINT3 AA11-52; PDZ domain 1 of 1) (P08515 1-218, tags or fused parts left off): as above
row,Binder,binding result
1,B1,no binding
2,B2,no binding
3,B3,no binding
4,B4,no binding
5,B5,no binding

# Target: T10, GST-SYN1a PDZ domain fusion protein (alpha1-syntrophin AA96-189; PDZ domain 1 of 1) (UniProt P08515 1-218 = GST)
# T10 construct: also called SYN 1 alpha; SYNTR 1 alpha
# Experiment: A/G assays
# T10 sequence (P08515 1-218, tags or fused parts left off): as above
row,Binder,binding result
1,B1,no binding
2,B2,no binding
3,B3,no binding
4,B4,no binding
5,B5,no binding

# Target: T11, GST-RGS12 PDZ domain fusion protein (human regulator of G-protein signalling 12 AA35-103; PDZ domain 1 of 1) (human, UniProt P08515 1-218 = GST)
# T11 construct: also called RSG12
# Experiment: A/G assays
# T11 sequence (P08515 1-218, tags or fused parts left off): as above
row,Binder,binding result
1,B1,no binding
2,B2,no binding
3,B3,no binding
4,B4,no binding
5,B5,no binding

# Target: T12, GST-TAX2 PDZ domain fusion protein (human tax interaction protein 2 AA54-140; PDZ domain 1 of 1) (human, UniProt P08515 1-218 = GST)
# T12 construct: also called TX 2
# Experiment: A/G assays
row,Binder,binding result
1,B1,no binding
2,B2,no binding
3,B3,no binding
4,B4,no binding
5,B5,no binding

# Target: T13, GST-CASK PDZ domain fusion protein (CASK AA495-584; PDZ domain 1 of 1) (mouse, UniProt P08515 1-218 = GST)
# T13 construct: also called mCASK
# Experiment: A/G assays
# T13 sequence (P08515 1-218, tags or fused parts left off): as above
row,Binder,binding result
1,B1,no binding
2,B2,no binding
3,B3,no binding
4,B4,no binding
5,B5,no binding

# Target: GST-AF6 PDZ domain fusion protein (af-6 protein AA985-1077; PDZ domain 1 of 1) (UniProt P08515 1-218 = GST)
# Experiment: A/G assays
# Chain of GST-AF6 PDZ domain fusion protein (af-6 protein AA985-1077; PDZ domain 1 of 1) (P08515 1-218, tags or fused parts left off): as above
row,Binder,binding result
1,B1,no binding
2,B2,no binding
3,B3,no binding
4,B4,no binding
5,B5,no binding

# Target: T14, GST-KIAA0316 PDZ domain fusion protein (KIAA0316 AA197-284; PDZ domain 1 of 1) (UniProt P08515 1-218 = GST)
# T14 construct: also called K316
# Experiment: A/G assays
# T14 sequence (P08515 1-218, tags or fused parts left off): as above
row,Binder,binding result
1,B1,no binding
2,B2,no binding
3,B3,no binding
4,B4,no binding
5,B5,no binding
